{"source": "patent US20230357354A1", "about": "“CD38-BINDING CD31 PEPTIDES AND USES THEREOF” (ENCEFA, priority 2020, published 2023)", "tested_on": "dopaminergic (TH^+) neurons in midbrain cultures", "experiment": "MPP+ intoxication model: DA (TH+) cell survival in midbrain cultures", "format": "cell-based, Wistar rat", "protocol": "Animals were treated in accordance with the Guide for the Care and Use of Laboratory Animals (National Research Council, 1996), European Directive 86/609, and the guidelines of the local institutional animal care and use committee. Cultures were prepared from the ventral mesencephalon of gestational age 15.5 Wistar rat embryos (Janvier Breeding Center, Le Genest St Isle, France). Dissociated cells in suspension obtained by mechanical trituration of midbrain tissue pieces were seeded at a density of 1.2-1.5×10^5 cells/cm^2 onto tissue culture supports precoated with 1 mg/mL polyethylenimine diluted in borate buffer pH 8.3 as described (Michel et al., 1997. J Neurochem. 69(4):1499-507). The cultures were then maintained in N5 medium supplemented with 5 mM glucose, 5 % horse serum, and 0.5 % fetal calf serum, except for the first 3 DIV, when the concentration of fetal calf serum was 2.5% to favor initial maturation of the cultures (Guerreiro et al., 2008. Mol Pharmacol. 74(4):980-9). They were fed daily by replacing 70% of the medium. Routinely, mesencephalic cultures were established on Nunc 24-well culture plates (Thermofischer Scientific, Rochester, NY). Note that these cultures contain tyrosine hydroxylase (TH)^+ neurons that were exclusively dopaminergic (Traver et al., 2006. Mol Pharmacol. 70(1):30-40). […]"}
{"molecule": "murine sCD31: murine soluble CD31 (extracellular domain of CD31) having SEQ ID NO: 18, used in Example 1 (protein, listed as Mus musculus, Murine sCD31) MLLALGLTLVLYASLQAEENSFTINSIHMESLPSWEVMNGQQLTLECLVDISTTSKSRSQHRVLFYKDDAMVYNVTSREHTESYVIPQARVFHSGKYKCTVMLNNKEKTTIEYEVKVHGVSKPKVTLDKKEVTEGGVVTVNCSLQEEKPPIFFKIEKLEVGTKFVKRRIDKTSNENFVLMEFPIEAQDHVLVFRCQAGILSGFKLQESEPIRSEYVTVQESFSTPKFEIKPPGMIIEGDQLHIRCIVQVTHLVQEFTEIIIQKDKAIVATSKQSSEAVYSVMAMVEYSGHYTCKVESNRISKASSIMVNITELFPKPKLEFSSSRLDQGELLDLSCSVSGTPVANFTIQKEETVLSQYQNFSKIAEESDSGEYSCTAGIGKVVKRSGLVPIQVCEMLSKPSIFHDAKSEIIKGHAIGISCQSENGTAPITYHLMKAKSDFQTLEVTSNDPATFTDKPTRDMEYQCRADNCHSHPAVFSEILRVRVIAPVDEVVISILSSNEVQSGSEMVLRCSVKEGTSPITFQFYKEKEDRPFHQAVVNDTQAFWHNKQASKKQEGQYYCTASNRASSMRTSPRSSTLAVRVFL", "values": [{"measurement": "EC50 of prevention of MPP^+-induced DA cell loss", "setting": "3 µM MPP^+ between 5 and 7 DIV", "result": 0.036, "unit": "µg/mL"}, {"measurement": "neuroprotective effect against MPP^+-induced DA cell death", "setting": "MPP^+ 3 µM between 5 and 7 DIV, HB7 1 µg/mL", "result": "neuroprotective"}]}
